Ten substances from US20210024620A1 can be followed below.

In assay [1] the target is rat FcRn (rat) (UniProt P13599). Kind of assay: Biacore, pH 6.0, apparent KD.
The target is the same in assay [2]. The assay is described as follows: Biacore SPR, pH 7.4, 1000 nM antibody. For orientation: SPR reads the build-up and loss of mass on a sensor chip optically.
Assay [3] has the same target. The assay is described as follows: Biacore, pH 6.0.
For assay [4] the target is unchanged. The assay is described as follows: Biacore SPR, pH 6.0.
The target is the same in assay [5]. The assay is described as follows: Biacore, pH 7.4, steady state response.
Assay [6] has the same target. Kind of assay: Octet BLI, pH 6.0. (In general: Biolayer interferometry detects binding as a change in optical thickness at a sensor tip.)
The target in assay [7] is Human CD16a (FcγRIIIa V158) with C-terminal HPC4 tag (human) (UniProt P08637). Kind of assay: Biacore, FcγRIIIa V158 captured, steady-state fit, apparent KD.
Assay [8] deals with FcRn immobilised on the FcRn affinity column (biotinylated cynoFcRn in one experiment, biotinylated hFcRn in another). The assay is described as follows: FcRn affinity chromatography, linear pH gradient; species of the immobilised FcRn not given.
Assay [9] concerns the target biotinylated human FcRn (human) (UniProt P55899). The assay is described as follows: Biacore, pH 6.0, apparent KD.
Assay [10] addresses biotinylated human FcRn (p51 subunit residues 24-297 with C-terminal Avi-tag; beta2-microglobulin residues 21-119) (human) (UniProt P55899). The assay is described as follows: Biacore SPR, pH 7.4, steady state.
The target of assay [11] is biotinylated human FcRn (human) (UniProt P55899). Kind of assay: Biacore, pH 6.0.
Assay [12] shares this target. Kind of assay: Biacore SPR, pH 6.0.
Assay [13] deals with rat FcRn (rat) (UniProt P13599). The assay is described as follows: Biacore SPR, pH 6.0. The source holds these as a separate data set.
The target of assay [14] is biotinylated human FcRn (p51 subunit residues 24-297 with C-terminal Avi-tag; beta2-microglobulin residues 21-119) (human) (UniProt P55899). The assay is described as follows: Biacore; affinity at pH 6.0 (M^-1) over steady state RU at pH 7.4.
For assay [15], the target named is biotinylated human FcRn (human) (UniProt P55899). Kind of assay: Biacore SPR, pH 7.4.
Assay [16] concerns the target rat FcRn (rat) (UniProt P13599). The assay is described as follows: Biacore SPR, pH 7.4.
In assay [17] the target is biotinylated human FcRn (human) (UniProt P55899). The assay is described as follows: Biacore SPR, pH 6.0. This is another data set of the same source.
Assay [18] concerns the target biotinylated human FcRn (p51 subunit residues 24-297 with C-terminal Avi-tag; beta2-microglobulin residues 21-119) (human) (UniProt P55899). The assay is described as follows: Biacore SPR, pH 6.0.
Assay [19] addresses biotinylated human FcRn (human) (UniProt P55899). The assay is described as follows: Biacore, pH 7.4, steady state response.
Assay [20] addresses Human CD16a (FcγRIIIa V158) with C-terminal HPC4 tag (human) (UniProt P08637). The assay is described as follows: Biacore SPR, FcγRIIIa-V158 captured, pH 7.4.
The target in assay [21] is biotinylated human FcRn (human) (UniProt P55899). Kind of assay: Biacore, biotin-captured hFcRn, pH 7.4.
The target in assay [22] is biotinylated human FcRn (p51 subunit residues 24-297 with C-terminal Avi-tag; beta2-microglobulin residues 21-119) (human) (UniProt P55899). Kind of assay: Biacore; inverse ratio (RU at pH 7.4 over affinity at pH 6.0).
In assay [23] the target is biotinylated cynomolgus FcRn (cynomolgus) (UniProt Q8SPV9). The assay is described as follows: Biacore, biotin-captured cFcRn, pH 6.0.
The target in assay [24] is biotinylated human FcRn (human) (UniProt P55899). Kind of assay: Biacore, biotin-captured hFcRn, pH 6.0.
The target of assay [25] is Human CD16a (FcγRIIIa residues 17-208 with C-terminal HPC4 tag and valine at position 158) (human) (UniProt P08637). The assay is described as follows: Biacore SPR, HPC4-tagged FcγRIIIa-V158 captured by anti-HPC4, pH 7.4.
Assay [26] has as its target biotinylated human FcRn (human) (UniProt P55899). Kind of assay: Biacore, biotin-captured hFcRn, pH 8.0, 1000 nM antibody.
The target is the same in assay [27]. The assay is described as follows: Biacore, biotin-captured hFcRn, pH 7.4, 1000 nM antibody.
The target is the same in assay [28]. The assay is described as follows: Biacore, biotin-captured hFcRn, pH 8.0.
Assay [29] has the same target. The assay is described as follows: Biacore, biotin-captured hFcRn, pH 9.0, 1000 nM antibody.
The target in assay [30] is biotinylated cynomolgus FcRn (cynomolgus) (UniProt Q8SPV9). Kind of assay: Biacore, biotin-captured cFcRn, pH 7.4, 1000 nM antibody.
Assay [31] has the same target. The assay is described as follows: Biacore, biotin-captured cFcRn, pH 8.0, 1000 nM antibody.
Assay [32] has the same target. The assay is described as follows: Biacore, biotin-captured cFcRn, pH 9.0, 1000 nM antibody.
Assay [33] has the same target. Kind of assay: Biacore, biotin-captured cFcRn, pH 8.0.
Assay [34] has the same target. Kind of assay: Biacore, biotin-captured cFcRn, pH 7.4.
Assay [35] has as its target biotinylated human FcRn (human) (UniProt P55899). The assay is described as follows: Biacore SPR, pH 7.4, 1000 nM antibody.
The target of assay [36] is biotinylated cynomolgus FcRn (cynomolgus) (UniProt Q8SPV9). Kind of assay: Biacore, pH 7.4, steady state response.
The target of the next assay is mouse FcRn (mouse) (UniProt Q61559). Kind of assay: Biacore, pH 7.4, steady state response.
Assay [37] deals with Human CD16a (FcγRIIIa V158) with C-terminal HPC4 tag (human) (UniProt P08637). The assay is described as follows: Biacore, FcγRIIIa V158 captured, relative to WT of the same backbone.

Chain of rat FcRn (rat) (P13599 23-298 limits assumed, chain 1 of 2): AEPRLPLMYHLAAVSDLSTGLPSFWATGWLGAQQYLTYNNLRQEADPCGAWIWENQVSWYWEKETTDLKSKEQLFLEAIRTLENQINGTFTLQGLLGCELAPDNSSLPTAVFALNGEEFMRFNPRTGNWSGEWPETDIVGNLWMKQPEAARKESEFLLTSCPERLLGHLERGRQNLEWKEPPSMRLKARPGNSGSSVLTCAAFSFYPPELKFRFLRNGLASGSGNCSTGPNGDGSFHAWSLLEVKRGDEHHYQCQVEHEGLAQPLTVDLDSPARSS
Chain of rat FcRn (rat) (P07151 21-119 limits assumed, chain 2 of 2, further chain): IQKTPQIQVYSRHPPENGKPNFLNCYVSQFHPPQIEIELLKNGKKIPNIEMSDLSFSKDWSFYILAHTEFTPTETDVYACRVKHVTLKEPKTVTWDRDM
Chain of mouse FcRn (mouse) (Q61559 22-297 limits assumed, chain 1 of 2): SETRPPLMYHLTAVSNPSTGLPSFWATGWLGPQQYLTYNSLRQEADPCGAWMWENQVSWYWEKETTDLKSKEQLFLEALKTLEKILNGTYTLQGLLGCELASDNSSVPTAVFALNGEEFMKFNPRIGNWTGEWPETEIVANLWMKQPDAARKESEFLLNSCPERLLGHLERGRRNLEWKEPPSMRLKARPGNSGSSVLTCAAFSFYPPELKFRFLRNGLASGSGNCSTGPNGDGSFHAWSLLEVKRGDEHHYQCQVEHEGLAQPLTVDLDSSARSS
Chain of mouse FcRn (mouse) (P01887 21-119 limits assumed, chain 2 of 2, further chain): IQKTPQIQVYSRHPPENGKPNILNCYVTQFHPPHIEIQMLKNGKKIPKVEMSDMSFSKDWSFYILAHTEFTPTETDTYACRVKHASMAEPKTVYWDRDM
Chain of biotinylated human FcRn (human) (P55899 24-297 limits assumed, chain 1 of 2): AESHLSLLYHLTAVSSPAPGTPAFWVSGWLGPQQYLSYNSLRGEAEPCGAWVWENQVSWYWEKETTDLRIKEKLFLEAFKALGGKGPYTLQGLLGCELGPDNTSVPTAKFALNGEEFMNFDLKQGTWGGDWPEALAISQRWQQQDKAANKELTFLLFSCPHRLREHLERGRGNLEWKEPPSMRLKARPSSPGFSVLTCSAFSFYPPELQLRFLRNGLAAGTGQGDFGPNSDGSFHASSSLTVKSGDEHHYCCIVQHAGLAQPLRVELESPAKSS
Chain of biotinylated human FcRn (human) (P61769 21-119 limits assumed, chain 2 of 2, further chain): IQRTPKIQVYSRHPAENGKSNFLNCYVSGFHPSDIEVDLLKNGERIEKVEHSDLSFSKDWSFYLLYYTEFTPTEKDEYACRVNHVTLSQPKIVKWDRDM
Chain of biotinylated human FcRn (p51 subunit residues 24-297 with C-terminal Avi-tag; beta2-microglobulin residues 21-119) (human) (P55899 24-297 limits assumed, chain 1 of 2): as the sequence (P55899 24-297 limits assumed, chain 1 of 2) above
Chain of biotinylated human FcRn (p51 subunit residues 24-297 with C-terminal Avi-tag; beta2-microglobulin residues 21-119) (human) (P61769 21-119 limits assumed, chain 2 of 2, further chain): as the sequence (P61769 21-119 limits assumed, chain 2 of 2, further chain) above
Chain of Human CD16a (FcγRIIIa V158) with C-terminal HPC4 tag (human) (P08637 17-208 F176V): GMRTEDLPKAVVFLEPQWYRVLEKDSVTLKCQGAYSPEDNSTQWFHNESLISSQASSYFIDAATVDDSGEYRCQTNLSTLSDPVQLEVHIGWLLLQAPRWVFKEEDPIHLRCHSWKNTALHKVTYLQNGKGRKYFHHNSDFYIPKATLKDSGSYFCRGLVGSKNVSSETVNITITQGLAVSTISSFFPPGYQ
Chain of Human CD16a (FcγRIIIa residues 17-208 with C-terminal HPC4 tag and valine at position 158) (human) (P08637 17-208 F176V): as above

Broadly, the koff is the first-order rate constant of dissociation. High values mean fast dissociation, low ones slow dissociation. As usually defined, the kon is the second-order rate constant of association. Read a low kon as slower complex formation. In the case of mAb1 AAA (T307A/E380A/N434A) (antibody), the Kd with rat FcRn (rat) [1] was determined as 77 nM; with rat FcRn (rat) [4], 77 nM; in assay [7], 450 nM. Further, the Steady State RU with rat FcRn (rat) [2] and with rat FcRn (rat) [5] was 23.6 RU in each case. For the same substance, the koff was 0.0117 s⁻¹ with rat FcRn (rat) [3], 0.0117 s⁻¹ with rat FcRn (rat) [4] and 0.00377 s⁻¹ in the assay with rat FcRn (rat) [6]. In addition, the kon with rat FcRn (rat) [3] and with rat FcRn (rat) [4] was 157000 M⁻¹ s⁻¹ throughout. In assay [8], this substance displayed a FcRn affinity column elution pH of 7.94 pH.
Regarding mAb1 MDQN (T256D/T307Q) (antibody), the Kd is 232 nM in assay [9]; 9.5 nM with rat FcRn (rat) [1]; 9.5 nM with rat FcRn (rat) [13]; 232 nM in assay [17]; 9.54 nM with rat FcRn (rat) [4]; 600 nM in assay [7]. The Steady State Binding, pH 7.4 (RU) in assay [10] is 10.7 RU. The koff in assay [11] is 0.087 s⁻¹; with rat FcRn (rat) [3], 0.0013 s⁻¹; in assay [12], 0.087 s⁻¹; in [17], 0.0872 s⁻¹; with rat FcRn (rat) [4] it was 0.00127 s⁻¹. For the same substance, the kon in assay [11] was determined as 380000 M⁻¹ s⁻¹; in the assay with rat FcRn (rat) [3] it was 13000 M⁻¹ s⁻¹; in assay [12] it was 380000 M⁻¹ s⁻¹; in [17] it was 376000 M⁻¹ s⁻¹; with rat FcRn (rat) [4], 133000 M⁻¹ s⁻¹. Also, in assay [14], the Ratio (pH 6.0/pH 7.4) was determined as 403000. Further, the Steady State RU stood at 10.7 RU in assay [15], 39.1 RU with rat FcRn (rat) [16], 10.7 RU in assay [19] and 39.1 RU in the assay with rat FcRn (rat) [5]. In assay [18], this substance registered a Ka of 4.31e+06 M⁻¹. In addition, the FcγRIIIa V158 affinity fold change relative to WT in assay [20] is 0.73 fold. Besides, the FcRn affinity column elution pH in assay [8] was 7.92 pH.
For the substance “mAb1 MDWY (T256D/T307W/N434Y) (antibody)”, the Kd is 101 nM in assay [21]; 15 nM in assay [23]; 18 nM in assay [24]; 2700 nM in assay [28]; 1200 nM in assay [33]; 85 nM in assay [34]. Also, the koff is 0.05 s⁻¹ in assay [21]; 0.0103 s⁻¹ in assay [23]; 0.0123 s⁻¹ in assay [24]; 0.54 s⁻¹ in [28]; 0.69 s⁻¹ in [33]; 0.029 s⁻¹ in assay [34]. Besides, the on-rate constant (kon) is 500000 M⁻¹ s⁻¹ in assay [21]; 700000 M⁻¹ s⁻¹ in assay [23]; 700000 M⁻¹ s⁻¹ in [24]; 260000 M⁻¹ s⁻¹ in [28]; 620000 M⁻¹ s⁻¹ in assay [33]; 350000 M⁻¹ s⁻¹ in assay [34]. For the same substance, the Ratio (pH 6.0/pH 7.4) in assay [22] was found to be 7.02e-07; in assay [14], 1.42e+06. This substance also registered a Steady State Binding, pH 7.4 (RU) in assay [10] of 59 RU. The substance also came in with a FcγRIIIa Binding Steady State RU in [25] of 211 RU. For the same substance, the Steady State RU worked out at 145 RU in [26]; 125 RU in assay [27]; 0.7 RU in assay [29]; 165 RU in [30]; 197 RU in assay [31]; 1.3 RU in assay [32]. In addition, the Ka in assay [18] turned out to be 8.4e+07 M⁻¹.
Take mAb1 T307E (antibody): the Kd in assay [9] amounted to 8130 nM; in the assay with rat FcRn (rat) [1] it was 141 nM; in [17], 8130 nM; with rat FcRn (rat) [4], 141 nM. Further, the figures for the Steady State RU (in [35]; in the assay with rat FcRn (rat) [2]) were 5.7 RU and 21.5 RU, respectively. In addition, the off-rate (koff) in [11] came to 0.3 s⁻¹; in the assay with rat FcRn (rat) [3], 0.006 s⁻¹; in [17], 0.298 s⁻¹; with rat FcRn (rat) [4], 0.00603 s⁻¹; with rat FcRn (rat) [6], 0.00329 s⁻¹. For the same substance, the kon in assay [11] is 44000 M⁻¹ s⁻¹; in the assay with rat FcRn (rat) [3], 56000 M⁻¹ s⁻¹; in assay [17] it was 43700 M⁻¹ s⁻¹; in the assay with rat FcRn (rat) [4] it was 55500 M⁻¹ s⁻¹. In addition, the FcRn affinity column elution pH in assay [8] was determined as 7.58 pH.
With mAb1 YDTN (M252Y/T256D) (antibody), the Kd came out at 5.9 nM in the assay with rat FcRn (rat) [1], 5.9 nM with rat FcRn (rat) [13], 5.86 nM with rat FcRn (rat) [4] and 1060 nM in assay [7]. The Steady State Binding, pH 7.4 (RU) in assay [10] is 9.7 RU. In addition, the Steady State RU in [15] came out at 9.7 RU; in the assay with rat FcRn (rat) [16], 56 RU; in assay [19] it was 9.7 RU; with rat FcRn (rat) [5], 56 RU. The substance further came in with a FcRn affinity column elution pH in assay [8] of 8.29 pH.
“mAb1 YDWY (M252Y/T256D/T307W/N434Y) (antibody)”: the Steady State Binding, pH 7.4 (RU) in assay [10] stood at 88.5 RU. Also, the Kd in [23] came out at 3.2 nM; in assay [24] it was 5.2 nM; in [28] it was 700 nM; in [33], 1500 nM; in [34], 49 nM. In addition, in assay [25], the FcγRIIIa Binding Steady State RU was 136 RU. For the same substance, the Steady State RU in [26] turned out to be 281 RU; in assay [27], 166 RU; in assay [29], 10.4 RU; in assay [30], 178 RU; in [31], 354 RU; in [32], 16 RU. The same substance showed a Ka in assay [18] of 2.66e+08 M⁻¹.
On to mAb2 DQ (T256D/T307Q) (antibody), for which the Steady State RU in [19] came to 14 RU; in assay [36], 11 RU; with mouse FcRn (mouse) it was 248 RU. Moreover, the FcγRIIIa V158 Affinity Fold Change (fold relative to WT) in [37] was 1.05.
The matching figures for mAb2 DW (T256D/T307W) (antibody): 18 RU, 15 RU, 257 RU and 1.15.
Regarding mAb2 LS (M428L/N434S) (antibody), the Steady State RU was found to be 44 RU in [19], 38 RU in assay [36] and 285 RU with mouse FcRn (mouse). Besides, the FcγRIIIa V158 Affinity Fold Change (fold relative to WT) in assay [37] stood at 1.23.
Consider mAb2 YD (M252Y/T256D) (antibody), for which the Steady State RU stood at 27 RU in [19], 22 RU in assay [36] and 394 RU with mouse FcRn (mouse). In addition, the FcγRIIIa V158 Affinity Fold Change (fold relative to WT) in assay [37] came to 0.58.
